# Laboratory results as given in paper PMC10992996, “Human CRB1 and CRB2 form homo- and heteromeric protein complexes in the retina” (Life Science Alliance, 2024).
# T1: CRB1-FLAG p.Y1161C (human, UniProt P82279 26-1406, p.Y1161C)
# T1 construct: Crumbs homolog 1, canonical form, human, cDNA NM_202153 as printed, with a patient missense mutation; Made by site-directed mutagenesis of m1; also called CRB1 p.Y1161C; CRB1-FLAG MT; source: HEK293T, transfected, in lysate; not shown: Strep-Strep-FLAG, N-terminal, kept
# T1 sequence (looked up): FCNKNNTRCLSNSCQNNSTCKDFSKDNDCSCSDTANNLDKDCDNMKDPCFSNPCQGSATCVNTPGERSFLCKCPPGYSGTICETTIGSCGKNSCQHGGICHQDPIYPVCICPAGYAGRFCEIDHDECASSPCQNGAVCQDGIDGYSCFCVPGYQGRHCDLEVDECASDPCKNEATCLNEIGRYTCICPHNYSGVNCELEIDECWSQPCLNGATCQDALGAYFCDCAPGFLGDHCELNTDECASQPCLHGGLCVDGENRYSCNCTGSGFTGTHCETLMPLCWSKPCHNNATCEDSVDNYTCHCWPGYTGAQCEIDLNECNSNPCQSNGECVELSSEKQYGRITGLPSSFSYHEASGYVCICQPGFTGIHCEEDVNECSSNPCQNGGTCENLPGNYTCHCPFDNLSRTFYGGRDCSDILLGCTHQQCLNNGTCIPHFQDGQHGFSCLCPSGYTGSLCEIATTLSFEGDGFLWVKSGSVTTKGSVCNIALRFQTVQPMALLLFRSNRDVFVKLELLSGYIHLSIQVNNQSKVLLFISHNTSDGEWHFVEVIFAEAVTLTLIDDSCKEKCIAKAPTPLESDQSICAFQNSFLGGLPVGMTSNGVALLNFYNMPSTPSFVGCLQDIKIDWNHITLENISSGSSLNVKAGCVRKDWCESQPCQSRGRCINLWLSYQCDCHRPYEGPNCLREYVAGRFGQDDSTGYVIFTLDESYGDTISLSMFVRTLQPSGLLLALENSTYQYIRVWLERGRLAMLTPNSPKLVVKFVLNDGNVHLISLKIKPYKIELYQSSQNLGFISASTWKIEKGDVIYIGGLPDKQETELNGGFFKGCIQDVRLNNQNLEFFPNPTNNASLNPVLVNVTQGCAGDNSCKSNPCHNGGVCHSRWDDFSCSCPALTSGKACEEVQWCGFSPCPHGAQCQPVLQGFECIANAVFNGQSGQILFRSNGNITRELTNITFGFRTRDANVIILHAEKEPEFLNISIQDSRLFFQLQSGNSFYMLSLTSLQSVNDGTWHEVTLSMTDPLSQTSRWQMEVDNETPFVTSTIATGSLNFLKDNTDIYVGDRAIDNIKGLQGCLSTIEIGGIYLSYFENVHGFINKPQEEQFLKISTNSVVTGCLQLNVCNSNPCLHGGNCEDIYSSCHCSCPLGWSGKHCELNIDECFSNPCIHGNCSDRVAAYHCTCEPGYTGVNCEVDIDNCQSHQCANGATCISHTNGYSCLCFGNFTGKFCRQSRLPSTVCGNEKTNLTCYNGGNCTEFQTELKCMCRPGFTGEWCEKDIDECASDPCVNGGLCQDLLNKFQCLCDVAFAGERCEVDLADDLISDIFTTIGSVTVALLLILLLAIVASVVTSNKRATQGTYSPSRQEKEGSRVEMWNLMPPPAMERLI
# B1: Human canonical CRB2 (Crumbs homolog 2) (natural protein)
# chain: not shown
# notes: Crumbs homolog 2, human, cDNA NM_173689; Stood as bait (FLAG copy) and as prey (HA copy) in the pairwise co-IP matrix; each copy carries only one of the two tags; The FLAG copy was the bait of the mass spectrometry pull-downs; also called CRB2-FLAG; CRB2-HA; source: HEK293T, transfected, in lysate (co-IP); HEK293T, transfected, FLAG-IP on beads, washed and purified with 0.01% SDS (retina …)
# Biological target: T1, CRB1-FLAG p.Y1161C
# Experiment: co-IP; HEK293T cells co-transfected pairwise with a FLAG and an HA construct, 48 h; lysis in TBS (30 mM Tris-HCl pH 7.4, 150 mM NaCl) with 0.5% Nonidet P40; FLAG-IP on ANTI-FLAG M2 Affinity Gel 60-90 min at 4°C, elution with FLAG peptide; Western blot with HA and FLAG antibodies; for mutants HA/FLAG signal in eluates relative to WT, three biological replicates
# Conditions: partners not purified
binder,measurement,value
B1,percent reduction of the interaction relative to CRB1 WT,11%
